Article PMC7878818
Values belong to the substance of their own block, whether it stands above or below them.

Columns and labels:
[1] = biological target: Spindlin1/C11orf84 complex (human) (UniProt Q9BUA3); test: ITC; 25 °C, MicroCal ITC200; 20 mM HEPES pH 7.5, 150 mM NaCl; 0.8 mM H3 peptide injected into 50 μM protein or complex in the sample cell
[2] = biological target: Spindlin1 W62A/W72A/C11orf84 complex (human) (UniProt Q9Y657); test: as above
[3] = biological target: Spindlin1 W72A/C11orf84 complex (human) (UniProt Q9Y657); test: as above
[4] = biological target: Spindlin1 D173A/C11orf84 complex (human) (UniProt Q9Y657); test: as above
[5] = biological target: Spindlin1 Y98A/C11orf84 complex (human) (UniProt Q9Y657); test: as above
[6] = biological target: Spindlin1 W62A/C11orf84 complex (human) (UniProt Q9Y657); test: as above
[7] = biological target: Spindlin1 Y91A/C11orf84 complex (human) (UniProt Q9Y657); test: as above
[8] = biological target: Spindlin1 F141A/C11orf84 complex (human) (UniProt Q9Y657); test: as above
[9] = biological target: Spindlin1 W62A/W72A/C11orf84 complex (human) (UniProt Q9Y657); test: ITC; 25 °C, MicroCal ITC200; 20 mM HEPES pH 7.5, 150 mM NaCl; 50 μM Spindlin1 or Spindlin1/C11orf84 complex in the cell, 0.8 mM peptide injected
Target sequence in this assay (Q9Y657 50-262 W62A/W72A, chain 1 of 2): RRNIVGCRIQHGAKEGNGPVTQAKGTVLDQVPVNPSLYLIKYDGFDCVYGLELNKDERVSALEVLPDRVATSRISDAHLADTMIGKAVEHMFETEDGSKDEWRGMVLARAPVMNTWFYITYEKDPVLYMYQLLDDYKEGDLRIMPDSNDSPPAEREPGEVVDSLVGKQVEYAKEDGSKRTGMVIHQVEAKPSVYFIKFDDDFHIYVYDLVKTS
Target sequence in this assay (Q9BUA3 whole entry, chain 2 of 2, further chain): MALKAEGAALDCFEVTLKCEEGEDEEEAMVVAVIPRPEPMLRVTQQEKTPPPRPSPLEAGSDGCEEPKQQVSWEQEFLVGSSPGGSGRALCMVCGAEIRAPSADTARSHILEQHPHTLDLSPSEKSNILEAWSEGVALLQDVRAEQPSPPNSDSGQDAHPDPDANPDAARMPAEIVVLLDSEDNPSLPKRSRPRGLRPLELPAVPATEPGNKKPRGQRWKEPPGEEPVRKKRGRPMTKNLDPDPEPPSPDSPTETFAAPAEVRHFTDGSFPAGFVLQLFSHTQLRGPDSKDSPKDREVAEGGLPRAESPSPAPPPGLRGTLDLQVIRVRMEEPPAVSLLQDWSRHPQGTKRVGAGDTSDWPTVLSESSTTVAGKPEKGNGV

[10] = biological target: Spindlin1 W72A/C11orf84 complex (human) (UniProt Q9Y657); test: as above
Target sequence in this assay (Q9Y657 50-262 W72A, chain 1 of 2): as the sequence (Q9Y657 50-262 W62A/W72A, chain 1 of 2) above, with A13W counted along it
Target sequence in this assay (Q9BUA3 whole entry, chain 2 of 2, further chain): as the sequence (Q9BUA3 whole entry, chain 2 of 2, further chain) above

[11] = biological target: Spindlin1 Y98A/C11orf84 complex (human) (UniProt Q9Y657); test: as above
Target sequence in this assay (Q9Y657 50-262 Y98A, chain 1 of 2): as the sequence (Q9Y657 50-262 W62A/W72A, chain 1 of 2) above, with A13W, A23W, Y49A counted along it
Target sequence in this assay (Q9BUA3 whole entry, chain 2 of 2, further chain): as the sequence (Q9BUA3 whole entry, chain 2 of 2, further chain) above

[12] = biological target: Spindlin1 (aa: 50–262) (human) (UniProt Q9Y657); test: as above
[13] = biological target: Spindlin1 W62A/C11orf84 complex (human) (UniProt Q9Y657); test: as above
Target sequence in this assay (Q9Y657 50-262 W62A, chain 1 of 2): as the sequence (Q9Y657 50-262 W62A/W72A, chain 1 of 2) above, with A23W counted along it
Target sequence in this assay (Q9BUA3 whole entry, chain 2 of 2, further chain): as the sequence (Q9BUA3 whole entry, chain 2 of 2, further chain) above

[14] = biological target: Spindlin1/C11orf84 complex (human) (UniProt Q9Y657); test: as above
[15] = biological target: Spindlin1 Y91A/C11orf84 complex (human) (UniProt Q9Y657); test: as above
Target sequence in this assay (Q9Y657 50-262 Y91A, chain 1 of 2): as the sequence (Q9Y657 50-262 W62A/W72A, chain 1 of 2) above, with A13W, A23W, Y42A counted along it
Target sequence in this assay (Q9BUA3 whole entry, chain 2 of 2, further chain): as the sequence (Q9BUA3 whole entry, chain 2 of 2, further chain) above

[16] = biological target: Spindlin1 F141A/C11orf84 complex (human) (UniProt Q9Y657); test: as above
Target sequence in this assay (Q9Y657 50-262 F141A, chain 1 of 2): as the sequence (Q9Y657 50-262 W62A/W72A, chain 1 of 2) above, with A13W, A23W, F92A counted along it
Target sequence in this assay (Q9BUA3 whole entry, chain 2 of 2, further chain): as the sequence (Q9BUA3 whole entry, chain 2 of 2, further chain) above

Sequence of Spindlin1 (aa: 50–262) (human) (Q9Y657 50-262): as the sequence (Q9Y657 50-262 W62A/W72A, chain 1 of 2) above, with A13W, A23W counted along it

Substance: H3K9me3 peptide, H3 (1-12)
Kd [1]: 2880 nM
stoichiometry N [1]: 1.02

Substance: H3K4me3K9me2 peptide, H3 (1-12)
Kd [1]: 42 nM
stoichiometry N [1]: 1.01

Substance: H3K4me3 peptide, H3 (1-12)
Kd [1]: 213 nM
stoichiometry N [1]: 1.01

Substance: H3K4me3K9me3 peptide
fold reduction in binding affinity against wild type [9]: 10 fold
fold reduction in binding affinity against wild type [10]: 3 fold
fold reduction in binding affinity against wild type [11]: 3 fold
Kd [12]: 46 nM
fold reduction in binding affinity against wild type [13]: 3 fold
Kd [14]: 20 nM
fold reduction in binding affinity against wild type [15]: 3 fold
fold reduction in binding affinity against wild type [16]: 40 fold

More lines, now with the values ahead:

stoichiometry N [2]: 1
stoichiometry N [3]: 1.07
stoichiometry N [4]: 1.04
stoichiometry N [5]: 1.07
stoichiometry N [6]: 1.06
stoichiometry N [7]: 1.07
stoichiometry N [8]: 1.03
stoichiometry N [1]: 1.02
Substance: H3K4me3K9me3 peptide, H3 (1-12)

Kd [1]: 82 nM
stoichiometry N [1]: 1.04
Substance: H3K4me3R8me2a peptide, H3 (1-12)
